# Assay results taken from patent US5716804, “Mammalian interleukin-10 (IL-10) super-activating receptors; and variants” (Schering Corporation, dated 1998).
# Values joined by “and” are separate entries in the source; they are usually repeats but may differ in a detail not shown here. Equal values may be shown once.
# B1: mIL-10R Δ282-389 (receptor)
# chain: LEFIAYGTELPSPSYVWFEARFFQHILHWKPIPNQSESTYYEVALKQYGNSTWNDIHICRKAQALSCDLTTFTLDLYHRSYGYRARVRAVDNSQYSNWTTTETRFTVDEVILTVDSVTLKAMDGIIYGTIHPPRPTITPAGDEYEQVFKDLRVYKISIRKFSELKNATKRVKQETFTLTVPIGVRKFCVKVLPRLESRINKAEWSEEQCLLITTEQYFTVTNLSILVISMLLFCGILVCLVLQWYIRHPGKLPTVLVFKKPHDFFPANPLCPETPDAIHIVSPGQPKYTQDASALGHVCLLEPKAPEEKDQVMVTFQGYQKQTRWKAEAAGPAECLDEEIPLTDAFDPELGVHLQDDLAWPPPALAAGYLKQESQGMASAPPGTPSRQWNQLTEEWSLLGVVSCEDLSIESWRFAHKLDPLDCGAAPGGLLDSLGSNLVTLPLISSLQVEE
# B2: wild-type mouse IL-10 receptor (mIL-10R) (receptor)
# chain: LEFIAYGTELPSPSYVWFEARFFQHILHWKPIPNQSESTYYEVALKQYGNSTWNDIHICRKAQALSCDLTTFTLDLYHRSYGYRARVRAVDNSQYSNWTTTETRFTVDEVILTVDSVTLKAMDGIIYGTIHPPRPTITPAGDEYEQVFKDLRVYKISIRKFSELKNATKRVKQETFTLTVPIGVRKFCVKVLPRLESRINKAEWSEEQCLLITTEQYFTVTNLSILVISMLLFCGILVCLVLQWYIRHPGKLPTVLVFKKPHDFFPANPLCPETPDAIHIVDLEVFPKVSLELRDSVLHGSTDSGFGSGKPSLQTEESQFLLPGSHPQIQGTLGKEESPGLQATCGDNTDSGICLQEPGLHSSMGPAWKQQLGYTHQDQDDSDVNLVQNSPGQPKYTQDASALGHVCLLEPKAPEEKDQVMVTFQGYQKQTRWKAEAAGPAECLDEEIPLTDAFDPELGVHLQDDLAWPPPALAAGYLKQESQGMASAPPGTPSRQWNQLTEEWSLLGVVSCEDLSIESWRFAHKLDPLDCGAAPGGLLDSLGSNLVTLPLISSLQVEE
# B3: mIL-10R Δ282-414 (receptor)
# chain: LEFIAYGTELPSPSYVWFEARFFQHILHWKPIPNQSESTYYEVALKQYGNSTWNDIHICRKAQALSCDLTTFTLDLYHRSYGYRARVRAVDNSQYSNWTTTETRFTVDEVILTVDSVTLKAMDGIIYGTIHPPRPTITPAGDEYEQVFKDLRVYKISIRKFSELKNATKRVKQETFTLTVPIGVRKFCVKVLPRLESRINKAEWSEEQCLLITTEQYFTVTNLSILVISMLLFCGILVCLVLQWYIRHPGKLPTVLVFKKPHDFFPANPLCPETPDAIHIVEEKDQVMVTFQGYQKQTRWKAEAAGPAECLDEEIPLTDAFDPELGVHLQDDLAWPPPALAAGYLKQESQGMASAPPGTPSRQWNQLTEEWSLLGVVSCEDLSIESWRFAHKLDPLDCGAAPGGLLDSLGSNLVTLPLISSLQVEE
# B4: mIL-10R Δ483-559 (receptor)
# chain: LEFIAYGTELPSPSYVWFEARFFQHILHWKPIPNQSESTYYEVALKQYGNSTWNDIHICRKAQALSCDLTTFTLDLYHRSYGYRARVRAVDNSQYSNWTTTETRFTVDEVILTVDSVTLKAMDGIIYGTIHPPRPTITPAGDEYEQVFKDLRVYKISIRKFSELKNATKRVKQETFTLTVPIGVRKFCVKVLPRLESRINKAEWSEEQCLLITTEQYFTVTNLSILVISMLLFCGILVCLVLQWYIRHPGKLPTVLVFKKPHDFFPANPLCPETPDAIHIVDLEVFPKVSLELRDSVLHGSTDSGFGSGKPSLQTEESQFLLPGSHPQIQGTLGKEESPGLQATCGDNTDSGICLQEPGLHSSMGPAWKQQLGYTHQDQDDSDVNLVQNSPGQPKYTQDASALGHVCLLEPKAPEEKDQVMVTFQGYQKQTRWKAEAAGPAECLDEEIPLTDAFDPELGVHLQDDLAWPPPALAAGYLKQES
# B5: mIL-10R Δ282-458 (receptor)
# chain: LEFIAYGTELPSPSYVWFEARFFQHILHWKPIPNQSESTYYEVALKQYGNSTWNDIHICRKAQALSCDLTTFTLDLYHRSYGYRARVRAVDNSQYSNWTTTETRFTVDEVILTVDSVTLKAMDGIIYGTIHPPRPTITPAGDEYEQVFKDLRVYKISIRKFSELKNATKRVKQETFTLTVPIGVRKFCVKVLPRLESRINKAEWSEEQCLLITTEQYFTVTNLSILVISMLLFCGILVCLVLQWYIRHPGKLPTVLVFKKPHDFFPANPLCPETPDAIHIVGVHLQDDLAWPPPALAAGYLKQESQGMASAPPGTPSRQWNQLTEEWSLLGVVSCEDLSIESWRFAHKLDPLDCGAAPGGLLDSLGSNLVTLPLISSLQVEE
# Legend:
# mIL-10R Δ282-414 (mouse) = details: scale: log greater proliferative response than wild-type mIL-10R
# mIL-10R Δ282-389 (mouse) = details: scale: log greater proliferative response than wild-type mIL-10R
# mIL-10R Δ282-458 (mouse) = details: scale: log greater proliferative response than wild-type mIL-10R
# the mutant mIL-10R = experiment: binding of iodinated hIL-10 to Ba/F3 transfectants, Scatchard analysis
# [1] = biological target: T1, ^125 I-hIL-10 (iodinated recombinant CHO-derived human IL-10) (human, UniProt P22301, iodinated (125I); labelled residue not stated); experiment: binding of iodinated hIL-10 to Ba/F3 transfectants
# [2] = biological target: T1, ^125 I-hIL-10 (iodinated recombinant …); experiment: Scatchard analysis of 125I-hIL-10 saturation binding to Ba/F3 transfectants
# Experimental: Approximately 5×10^6 cells for each cell line tested were pelleted by centrifugation at 200×g for 10 min, washed in PBS, and resuspended in 200 μl binding buffer (PBS, 10% fetal calf serum, 0.1% NaN_3) containing iodinated hIL-10 at a concentration of 100–500 pM. After incubation at 4° C. for two hours in a rotary mixer, the cells were centrifuged at 200×g for 10 min, resuspended in 100 μl binding buffer without labeled hIL-10, layered over 200 μl of a 1:1 mixture of dibutyl- and dioctyl-phthalate oils in elongated microcentrifuge tubes, centrifuged at 400×g for 5 min at 4° C., and quick frozen in liquid nitrogen. The cell pellets were then cut and counted in a Clinigamma 1272 counter (Pharmacia LKB). Non-specific binding was determined by performing the binding in the presence of 500 to 1000-fold molar excess unlabeled hIL-10. For saturation binding experiments, two-fold serial dilutions of approximately 600 pM solution of iodinated hIL-10 were used, with a parallel series done to determine non-specific binding. Scatchard analysis was performed on the data points obtained using the EBDA Program (Elsevier-Biosoft, Cambridge, U.K.). Antibody inhibition was done under the above binding conditions but with the addition of a 100-fold molar excess of each of the indicated monoclonal antibodies. Cytokine specificity was determined under similar conditions but with the addition of 500-fold molar excess of the cytokines indicated. Similar measurements can be made using the BIACORE apparatus (Pharmacia LKB) following manufacturer's recommendations.
molecule,measurement,setting,value
IL-10 (ligand),proliferative response to IL-10 of Ba/F3 transfectants,mIL-10R Δ282-414 (mouse),1.5 and 2
same,proliferative response to IL-10 of Ba/F3 transfectants,mIL-10R Δ282-389 (mouse),1.5 and 2
same,proliferative response to IL-10 of Ba/F3 transfectants,mIL-10R Δ282-458 (mouse),1.5 and 2
^125 I-hIL-10 (iodinated recombinant CHO-derived human IL-10) (from UniProt P22301) (ligand),Kd,the mutant mIL-10R,0.4 to 0.6 nM
B1,binding result,[1],binds
B2,Kd,[2],0.28 nM
B3,Kd,[2],0.67 nM
B4,Kd,[2],0.54 nM
B5,binding result,[1],binds
